The source of these data is article PMC10011603, “TRAK adaptors regulate the recruitment and activation of dynein and kinesin in mitochondrial transport” (Nature Communications, 2023).

Assay [1] has as its target T1, full-length human kinesin-1 heavy chain (KIF5B-GFP-SNAPf) (human, UniProt P33176 1-963, fluorescent dye in motility assays (LD555-kinesin, Alexa488-kinesin)).
T1 construct: kinesin-1 heavy chain KIF5B, human, amino acids 1-963, full length; source: baculovirus-infected SF9 cells, purified (IgG Sepharose, TEV protease); not shown: His6-ZZ, N-terminal, cleaved; GFP, C-terminal, kept; SNAPf, C-terminal, kept
T1 sequence (looked up): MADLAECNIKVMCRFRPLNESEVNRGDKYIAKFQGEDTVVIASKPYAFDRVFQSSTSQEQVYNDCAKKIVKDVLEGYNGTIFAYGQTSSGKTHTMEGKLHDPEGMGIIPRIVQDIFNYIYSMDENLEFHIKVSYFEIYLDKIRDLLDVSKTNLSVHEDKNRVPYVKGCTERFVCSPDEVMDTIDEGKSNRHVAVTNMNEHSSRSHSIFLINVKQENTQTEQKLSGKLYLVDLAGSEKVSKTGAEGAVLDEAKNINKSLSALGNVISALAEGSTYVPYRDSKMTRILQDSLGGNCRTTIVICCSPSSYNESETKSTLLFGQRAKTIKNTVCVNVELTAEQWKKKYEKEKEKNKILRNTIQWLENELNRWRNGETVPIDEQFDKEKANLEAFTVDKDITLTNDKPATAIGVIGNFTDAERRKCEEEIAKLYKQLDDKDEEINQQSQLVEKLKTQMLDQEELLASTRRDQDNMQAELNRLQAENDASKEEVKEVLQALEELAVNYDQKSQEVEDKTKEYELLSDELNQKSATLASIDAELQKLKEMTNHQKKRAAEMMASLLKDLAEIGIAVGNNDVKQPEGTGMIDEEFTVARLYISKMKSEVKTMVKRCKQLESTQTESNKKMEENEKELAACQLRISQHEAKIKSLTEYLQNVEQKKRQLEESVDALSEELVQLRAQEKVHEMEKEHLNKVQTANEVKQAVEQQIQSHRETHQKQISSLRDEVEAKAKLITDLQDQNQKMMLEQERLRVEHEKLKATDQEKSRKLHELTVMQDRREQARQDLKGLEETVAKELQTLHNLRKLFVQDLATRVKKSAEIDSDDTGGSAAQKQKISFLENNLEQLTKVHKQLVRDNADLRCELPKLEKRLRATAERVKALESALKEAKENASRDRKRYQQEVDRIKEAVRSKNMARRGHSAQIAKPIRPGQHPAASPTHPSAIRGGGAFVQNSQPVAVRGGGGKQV
Description: single-molecule TIRF colocalisation on microtubules; two-colour imaging of labeled kinesin and labeled TRAK constructs on surface-immobilized MTs, 0-50 nM MAP7, 1 mM Mg·ATP; also with 2 mM Ca2+. The note with it: both partners purified.

In assay [2] the target is T1, full-length human kinesin-1 heavy chain …. In words: single-molecule TIRF colocalisation on microtubules; three-colour imaging of Alexa488-KIF5B, LD555-TRAK1 1-532 (or full-length TRAK1) and LD655-Miro1 1-592; 10 nM MAP7; 0, 0.1 and 2 mM Ca2+. The note with it: both partners purified.
Assay [3] addresses T2, Miro1^1–592 (Miro1^1–592-SNAP-psc-StrepII) (human, UniProt Q8IXI2 1-592, LD655 dye on the SNAP tag in motility assays).
T2 construct: mitochondrial Rho GTPase 1 (Miro1), human, residues 1-592, lacks the transmembrane domain; A PreScission site (psc) stands between SNAP and StrepII; no cleavage is told; also called Miro1^1–592-StrepII; Miro1^1–592-SNAPf-StrepII; source: purified (Streptactin Sepharose, eluted with desthiobiotin); not shown: SNAP, C-terminal, kept; StrepII, C-terminal, kept
The description is as above. The note with it: both partners purified.

The target in assay [4] is T1, full-length human kinesin-1 heavy chain …. Description: cell-based or functional assay.

T2 sequence (Q8IXI2 1-592): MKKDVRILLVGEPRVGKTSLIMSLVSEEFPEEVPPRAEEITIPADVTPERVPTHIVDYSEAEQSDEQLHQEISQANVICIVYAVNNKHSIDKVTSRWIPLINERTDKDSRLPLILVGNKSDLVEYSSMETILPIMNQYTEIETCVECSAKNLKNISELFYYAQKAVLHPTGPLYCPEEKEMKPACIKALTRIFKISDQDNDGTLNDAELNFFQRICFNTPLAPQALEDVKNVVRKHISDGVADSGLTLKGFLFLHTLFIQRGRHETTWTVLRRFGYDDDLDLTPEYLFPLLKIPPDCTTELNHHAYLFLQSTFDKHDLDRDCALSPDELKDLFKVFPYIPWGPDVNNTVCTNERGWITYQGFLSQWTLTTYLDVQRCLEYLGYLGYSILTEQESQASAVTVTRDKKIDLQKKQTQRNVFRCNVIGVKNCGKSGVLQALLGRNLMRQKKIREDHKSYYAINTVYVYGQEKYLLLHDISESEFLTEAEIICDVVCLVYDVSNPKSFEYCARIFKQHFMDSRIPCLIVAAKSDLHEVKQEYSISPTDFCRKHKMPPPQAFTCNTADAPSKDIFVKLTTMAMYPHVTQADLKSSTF

B1: TRAK1^1–400 (domain or fragment, human, UniProt Q9UPV9 1-400, looked up)
chain: MALVFQFGQPVRAQPLPGLCHGKLIRTNACDVCNSTDLPEVEIISLLEEQLPHYKLRADTIYGYDHDDWLHTPLISPDANIDLTTEQIEETLKYFLLCAERVGQMTKTYNDIDAVTRLLEEKERDLELAARIGQSLLKKNKTLTERNELLEEQVEHIREEVSQLRHELSMKDELLQFYTSAAEESEPESVCSTPLKRNESSSSVQNYFHLDSLQKKLKDLEEENVVLRSEASQLKTETITYEEKEQQLVNDCVKELRDANVQIASISEELAKKTEDAARQQEEITHLLSQIVDLQKKAKACAVENEELVQHLGAAKDAQRQLTAELRELEDKYAECMEMLHEAQEELKNLRNKTMPNTTSRRYHSLGLFPMDSLAAEIEGTMRKELQLEEAESPDITHQK
modifications: LD555 or LD655 dye on the SNAP-tag in motility assays
notes: TRAK1, human, residues 1-400; full length printed as 1-953; also called T1^1–400; N-terminal coiled coil of TRAK1 with CC1 box and Spindly motif; source: baculovirus-infected SF9 cells, purified (IgG Sepharose, TEV protease); not shown: His6-ZZ, N-terminal, cleaved; SNAP-tag or GFP, C-terminal, kept
For the molecule B1, the binding result in assay [1] was “binds”.

B2: TRAK1^1–532 (domain or fragment, human, UniProt Q9UPV9 1-532, looked up)
chain: MALVFQFGQPVRAQPLPGLCHGKLIRTNACDVCNSTDLPEVEIISLLEEQLPHYKLRADTIYGYDHDDWLHTPLISPDANIDLTTEQIEETLKYFLLCAERVGQMTKTYNDIDAVTRLLEEKERDLELAARIGQSLLKKNKTLTERNELLEEQVEHIREEVSQLRHELSMKDELLQFYTSAAEESEPESVCSTPLKRNESSSSVQNYFHLDSLQKKLKDLEEENVVLRSEASQLKTETITYEEKEQQLVNDCVKELRDANVQIASISEELAKKTEDAARQQEEITHLLSQIVDLQKKAKACAVENEELVQHLGAAKDAQRQLTAELRELEDKYAECMEMLHEAQEELKNLRNKTMPNTTSRRYHSLGLFPMDSLAAEIEGTMRKELQLEEAESPDITHQKRVFETVRNINQVVKQRSLTPSPMNIPGSNQSSAMNSLLSSCVSTPRSSFYGSDIGNVVLDNKTNSIILETEAADLGNDERSKKPGTPGTPGSHDLETALRRLSLRRENYLSERRFFEEEQERKLQELAEKGE
modifications: LD555 dye on the SNAP-tag in motility assays
notes: full length printed as 1-953; also called TRAK1 construct containing the coiled coils and part of the C-terminal domain; source: baculovirus-infected SF9 cells, purified (IgG Sepharose, TEV protease); not shown: His6-ZZ, N-terminal, cleaved; SNAP-tag or GFP, C-terminal, kept
In the case of B2, the binding result in assay [2] and in assay [3] was “binds” in each case.

B3: full-length TRAK2 (TRAK2^1–914) (natural protein, human, UniProt O60296 1-914, looked up)
chain: MSQSQNAIFTSPTGEENLMNSNHRDSESITDVCSNEDLPEVELVSLLEEQLPQYRLKVDTLFLYENQDWTQSPHQRQHASDALSPVLAEETFRYMILGTDRVEQMTKTYNDIDMVTHLLAERDRDLELAARIGQALLKRNHVLSEQNESLEEQLGQAFDQVNQLQHELCKKDELLRIVSIASEESETDSSCSTPLRFNESFSLSQGLLQLEMLQEKLKELEEENMALRSKACHIKTETVTYEEKEQQLVSDCVKELRETNAQMSRMTEELSGKSDELIRYQEELSSLLSQIVDLQHKLKEHVIEKEELKLHLQASKDAQRQLTMELHELQDRNMECLGMLHESQEEIKELRSRSGPTAHLYFSQSYGAFTGESLAAEIEGTMRKKLSLDEESSLFKQKAQQKRVFDTVRIANDTRGRSISFPALLPIPGSNRSSVIMTAKPFESGLQQTEDKSLLNQGSSSEEVAGSSQKMGQPGPSGDSDLATALHRLSLRRQNYLSEKQFFAEEWQRKIQVLADQKEGVSGCVTPTESLASLCTTQSEITDLSSASCLRGFMPEKLQIVKPLEGSQTLYHWQQLAQPNLGTILDPRPGVITKGFTQLPGDAIYHISDLEEDEEEGITFQVQQPLEVEEKLSTSKPVTGIFLPPITSAGGPVTVATANPGKCLSCTNSTFTFTTCRILHPSDITQVTPSSGFPSLSCGSSGSSSSNTAVNSPALSYRLSIGESITNRRDSTTTFSSTMSLAKLLQERGISAKVYHSPISENPLQPLPKSLAIPSTPPNSPSHSPCPSPLPFEPRVHLSENFLASRPAETFLQEMYGLRPSRNPPDVGQLKMNLVDRLKRLGIARVVKNPGAQENGRCQEAEIGPQKPDSAVYLNSGSSLLGGLRRNQSLPVIMGSFAAPVCTSSPKMGVLKED
notes: TRAK2, human, residues 1-914, full length; source: HEK 293 F GNTI-/- cells, PEI transfection, purified (TRAK purification procedure); not shown: His6-ZZ, N-terminal, cleaved; SNAP-tag or GFP, C-terminal, kept
B3: the binding result in assay [1] is given as “binds”.

B4: TRAK1^1–360 (domain or fragment, human, UniProt Q9UPV9 1-360, looked up)
chain: MALVFQFGQPVRAQPLPGLCHGKLIRTNACDVCNSTDLPEVEIISLLEEQLPHYKLRADTIYGYDHDDWLHTPLISPDANIDLTTEQIEETLKYFLLCAERVGQMTKTYNDIDAVTRLLEEKERDLELAARIGQSLLKKNKTLTERNELLEEQVEHIREEVSQLRHELSMKDELLQFYTSAAEESEPESVCSTPLKRNESSSSVQNYFHLDSLQKKLKDLEEENVVLRSEASQLKTETITYEEKEQQLVNDCVKELRDANVQIASISEELAKKTEDAARQQEEITHLLSQIVDLQKKAKACAVENEELVQHLGAAKDAQRQLTAELRELEDKYAECMEMLHEAQEELKNLRNKTMPNTTS
modifications: LD555 or LD655 dye on the SNAP-tag in motility assays
Regarding B4, in assay [4], the “kinesin landing rate on MTs in the presence of MAP7, 5-20 nM TRAK1 1-360 against no TRAK” value was 5 fold.

B5: full-length TRAK1 (TRAK1^1–953) (natural protein, human, UniProt Q9UPV9 1-953, looked up)
chain: MALVFQFGQPVRAQPLPGLCHGKLIRTNACDVCNSTDLPEVEIISLLEEQLPHYKLRADTIYGYDHDDWLHTPLISPDANIDLTTEQIEETLKYFLLCAERVGQMTKTYNDIDAVTRLLEEKERDLELAARIGQSLLKKNKTLTERNELLEEQVEHIREEVSQLRHELSMKDELLQFYTSAAEESEPESVCSTPLKRNESSSSVQNYFHLDSLQKKLKDLEEENVVLRSEASQLKTETITYEEKEQQLVNDCVKELRDANVQIASISEELAKKTEDAARQQEEITHLLSQIVDLQKKAKACAVENEELVQHLGAAKDAQRQLTAELRELEDKYAECMEMLHEAQEELKNLRNKTMPNTTSRRYHSLGLFPMDSLAAEIEGTMRKELQLEEAESPDITHQKRVFETVRNINQVVKQRSLTPSPMNIPGSNQSSAMNSLLSSCVSTPRSSFYGSDIGNVVLDNKTNSIILETEAADLGNDERSKKPGTPGTPGSHDLETALRRLSLRRENYLSERRFFEEEQERKLQELAEKGELRSGSLTPTESIMSLGTHSRFSEFTGFSGMSFSSRSYLPEKLQIVKPLEGSATLHHWQQLAQPHLGGILDPRPGVVTKGFRTLDVDLDEVYCLNDFEEDDTGDHISLPRLATSTPVQHPETSAHHPGKCMSQTNSTFTFTTCRILHPSDELTRVTPSLNSAPTPACGSTSHLKSTPVATPCTPRRLSLAESFTNTRESTTTMSTSLGLVWLLKERGISAAVYDPQSWDRAGRGSLLHSYTPKMAVIPSTPPNSPMQTPTSSPPSFEFKCTSPPYDNFLASKPASSILREVREKNVRSSESQTDVSVSNLNLVDKVRRFGVAKVVNSGRAHVPTLTEEQGPLLCGPPGPAPALVPRGLVPEGLPLRCPTVTSAIGGLQLNSGIRRNRSFPTMVGSSMQMKAPVTLTSGILMGAKLSKQTSLR
notes: TRAK1, human, residues 1-953, full length; source: HEK 293 F GNTI-/- cells, PEI transfection, purified (TRAK purification procedure); not shown: His6-ZZ, N-terminal, cleaved; SNAP-tag or GFP, C-terminal, kept
In the case of B5, the binding result in assay [1] was “binds”.

B6: TRAK2^1–400 (domain or fragment, human, UniProt O60296 1-400, looked up)
chain: MSQSQNAIFTSPTGEENLMNSNHRDSESITDVCSNEDLPEVELVSLLEEQLPQYRLKVDTLFLYENQDWTQSPHQRQHASDALSPVLAEETFRYMILGTDRVEQMTKTYNDIDMVTHLLAERDRDLELAARIGQALLKRNHVLSEQNESLEEQLGQAFDQVNQLQHELCKKDELLRIVSIASEESETDSSCSTPLRFNESFSLSQGLLQLEMLQEKLKELEEENMALRSKACHIKTETVTYEEKEQQLVSDCVKELRETNAQMSRMTEELSGKSDELIRYQEELSSLLSQIVDLQHKLKEHVIEKEELKLHLQASKDAQRQLTMELHELQDRNMECLGMLHESQEEIKELRSRSGPTAHLYFSQSYGAFTGESLAAEIEGTMRKKLSLDEESSLFKQKAQ
modifications: LD555 or LD655 dye on the SNAP-tag in motility assays
notes: TRAK2, human, residues 1-400; full length printed as 1-914; also called T2^1–400; N-terminal coiled coil of TRAK2 with CC1 box and Spindly motif; source: baculovirus-infected SF9 cells, purified (IgG Sepharose, TEV protease); not shown: His6-ZZ, N-terminal, cleaved; SNAP-tag or GFP, C-terminal, kept
Regarding B6, the binding result in assay [1] is “binds”.
